{"source": "paper PMC6404975", "key": {"[1]": {"target": "insulin (bovine pancreas) (Bos taurus, UniProt P01317;P01317 25-54;85-105)", "sequence (P01317 25-54, chain 1 of 2)": "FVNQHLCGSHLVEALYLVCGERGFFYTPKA", "sequence (P01317 85-105, chain 2 of 2)": "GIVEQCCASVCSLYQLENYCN", "assay": "electrochemical aptamer-based sensor"}, "glucagon": {"target": "glucagon (UniProt P01275 53-81)", "sequence (P01275 53-81)": "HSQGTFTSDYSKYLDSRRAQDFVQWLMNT", "assay": "electrochemical aptamer-based sensor"}}}
{"binder": "AAAAGGTGGTGGGGGGGGTTGGTAGGGTGTCTTCT (structured_DNA, 5' thiol-C6 (immobilised on gold); 3' methylene blue)", "note": "[Insulin-End (IGA3)]", "values": [{"measurement": "Kd", "setting": "[1]", "result": "240 ± 65", "unit": "nM"}, {"measurement": "binding result", "setting": "glucagon", "result": "no binding"}]}
